Measurements published in patent US20180282410A1 (Hoffmann-La Roche, published 2018).

Legend:
[1] = biological target: T1, human (hu) Robo 4 extracellular domain (ECD)-precision site (PreS)-Avi-tag (Avi)-6x histidine (His) (human); assay: SPR Biacore T100, IgG captured via anti-human Fab, antigen as analyte (affinity)
T1 construct: it holds the ECD with PreScission site, Avi-tag and His-tag; also called recombinant human Robo 4; human Robo 4
T1 chain: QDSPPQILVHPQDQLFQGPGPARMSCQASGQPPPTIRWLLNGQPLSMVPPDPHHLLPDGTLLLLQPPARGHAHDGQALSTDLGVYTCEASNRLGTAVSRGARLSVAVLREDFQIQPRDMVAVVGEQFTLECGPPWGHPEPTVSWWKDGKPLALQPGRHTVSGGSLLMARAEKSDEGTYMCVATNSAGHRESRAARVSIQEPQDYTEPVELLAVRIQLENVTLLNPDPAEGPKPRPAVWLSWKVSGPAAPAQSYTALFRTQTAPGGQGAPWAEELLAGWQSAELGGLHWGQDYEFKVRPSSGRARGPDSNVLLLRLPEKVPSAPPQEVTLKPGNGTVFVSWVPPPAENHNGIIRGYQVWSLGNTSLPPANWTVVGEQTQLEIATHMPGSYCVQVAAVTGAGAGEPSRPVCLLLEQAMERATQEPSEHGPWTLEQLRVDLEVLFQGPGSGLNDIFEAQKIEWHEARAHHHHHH
Experimental: (§1) All surface plasmon resonance (SPR) experiments are performed on a Biacore T100 at 25° C. with HBS-EP as running buffer (0.01 M HEPES pH 7.4, 0.15 M NaCl, 3 mM EDTA, 0.005% Surfactant P20 (Biacore)).
(§2) Anti Robo 4 antibodies were captured for 60 s at 50 nM. Recombinant human, murine and cynomolgus Robo 4 were passed at a concentration range from 0.46-1000 nM with a flow of 30 μl/min through the flow cells over 90 s. The dissociation was monitored for 120 s. Bulk refractive index differences were corrected for by subtracting the response obtained on a reference flow cell. Here, the antigens were flown over a surface with immobilized anti-human Fab specific antibody on which HBS-EP has been injected rather than the antibodies.
(§3) Kinetic constants were derived using the Biacore T100 Evaluation Software (vAA, Biacore), to fit rate equations for 1:1 Langmuir binding by numerical integration.

[2] = biological target: T2, murine (mu) Robo 4 ECD-PreS-Avi-His (mouse); assay: as above
T2 construct: also called recombinant murine Robo 4; murine Robo 4
T2 chain: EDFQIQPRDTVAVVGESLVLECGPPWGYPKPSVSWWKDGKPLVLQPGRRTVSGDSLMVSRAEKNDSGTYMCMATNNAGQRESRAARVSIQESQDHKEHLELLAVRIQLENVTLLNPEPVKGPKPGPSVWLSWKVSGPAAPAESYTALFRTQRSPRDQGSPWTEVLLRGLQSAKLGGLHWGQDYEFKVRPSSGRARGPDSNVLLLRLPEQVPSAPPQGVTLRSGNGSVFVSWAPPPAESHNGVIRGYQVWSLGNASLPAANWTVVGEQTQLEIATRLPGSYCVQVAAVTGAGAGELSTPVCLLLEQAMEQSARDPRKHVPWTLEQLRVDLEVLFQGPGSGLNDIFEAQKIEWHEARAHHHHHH
Experimental: as §1, §2, §3

[3] = biological target: T3, recombinant cynomolgus Robo 4 ECD fused to AcTEV protease recognition site, Avi- and 6xHis-tag (cynomolgus); assay: as above
T3 construct: Biotinylated in the avidity assay
T3 chain: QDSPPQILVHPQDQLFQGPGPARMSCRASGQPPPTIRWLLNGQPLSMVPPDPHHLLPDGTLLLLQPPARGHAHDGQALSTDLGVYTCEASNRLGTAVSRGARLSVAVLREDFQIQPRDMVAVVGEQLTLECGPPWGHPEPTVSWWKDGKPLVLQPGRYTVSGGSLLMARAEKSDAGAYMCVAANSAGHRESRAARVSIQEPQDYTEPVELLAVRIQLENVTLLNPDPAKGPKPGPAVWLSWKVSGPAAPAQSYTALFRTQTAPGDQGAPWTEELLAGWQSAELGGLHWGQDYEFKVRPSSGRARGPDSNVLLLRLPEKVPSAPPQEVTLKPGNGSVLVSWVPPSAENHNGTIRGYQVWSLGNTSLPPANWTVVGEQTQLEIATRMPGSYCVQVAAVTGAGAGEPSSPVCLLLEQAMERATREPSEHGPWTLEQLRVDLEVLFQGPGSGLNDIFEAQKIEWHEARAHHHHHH
Experimental: as §1, §2, §3

[4] = biological target: T4, human Robo 4 Ig-like domain 1-Fc (human, UniProt P0DOX5 222-449 = IgG part); assay: SPR, IgG captured via anti-human Fab, domain-Fc as analyte
T4 construct: also called IgG-like domain 1
Experimental: as §1
(§4) For determination of the epitope of the four analyzed anti-Robo 4 antibodies, domain variants of human Robo 4 (FN-like domain 1, FN-like domain 2, Ig-like domain 1 and Ig-like domain 2) were used. Anti-Robo 4 antibodies were captured for 60 s at 50 nM on a sensorchip surface with immobilized anti-human Fab specific antibody (GE Healthcare). Domain variants of human Robo 4 were passed at a concentration range of 0.46-1000 nM with a flow of 30 μl/min through the flow cells over 90 s. The dissociation was monitored for 120 s. Bulk refractive index differences were corrected for by subtracting the response obtained on reference flow cell as described above.

[5] = biological target: T5, human Robo 4 FN-like domain 2-Fc (human, UniProt P0DOX5 222-449 = IgG part); assay: as above
T5 construct: also called fibronectin-like domain 2
Experimental: as §1, §4

[6] = biological target: T6, human Robo 4 Ig-like domain 2-Fc (human, UniProt P0DOX5 222-449 = IgG part); assay: as above
T6 construct: also called IgG-like domain 2
Experimental: as §1, §4

[7] = biological target: T7, human Robo 4 FN-like domain 1-Fc (human, UniProt P0DOX5 222-449 = IgG part); assay: as above
T7 construct: also called fibronectin-like domain 1
Experimental: as §1, §4

B1: 01E06 anti-Robo 4 IgG (antibody, V domains shown)
VH: EVQLVESGGGLSQPGNSLKLSCEASGFTFRNYDMSWVRQAPGKGLEWVAYISSGGGPIYYVDAVKGRFTISRDNAKNLLFLQMNNLRSEDTAVYYCARDLADIGVFDYWGQGTMVTVSS
VL: DFKMTQSPDILSPSLGESVTITCQSSQNIYSNLAWYQQKPGEHPKLLIYTASILADGIPSRFTGSGSGTQFSLKISSLQPDDVANYYCQQYVYYRTFGPGTKLEIK
notes: also called 01E06 IgG
[1]
  Kd: 0.69 nM
  koff: 0.00033 s⁻¹
  kon: 479000 M⁻¹ s⁻¹
[2]
  Kd: 166 nM
  koff: 0.0128 s⁻¹
  kon: 77100 M⁻¹ s⁻¹
[3]
  Kd: 0.96 nM
  koff: 8e-05 s⁻¹
  kon: 80400 M⁻¹ s⁻¹
[4]
  binding result: no binding (tested: 0.46-1000 nM)
[5]
  binding result: no binding (tested: 0.46-1000 nM)
[6]
  Kd: 4.9 nM
[7]
  binding result: no binding (tested: 0.46-1000 nM)

B2: 7G2 anti-Robo 4 IgG (antibody, V domains shown)
VH: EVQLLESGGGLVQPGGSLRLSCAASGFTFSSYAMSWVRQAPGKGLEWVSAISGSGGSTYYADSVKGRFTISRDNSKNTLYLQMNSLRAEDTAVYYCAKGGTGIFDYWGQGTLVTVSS
VL: EIVLTQSPGTLSLSPGERATLSCRASQSVSSSYLAWYQQKPGQAPRLLIYGASSRATGIPDRFSGSGSGTDFTLTISRLEPEDFAVYYCQQGQLPPRTFGQGTKVEIK
notes: also called 7G2 IgG
[1]
  Kd: 23.4 nM
  koff: 0.00102 s⁻¹
  kon: 43800 M⁻¹ s⁻¹
[3]
  Kd: 64.1 nM
  koff: 0.00116 s⁻¹
  kon: 18100 M⁻¹ s⁻¹
[4]
  Kd: 151 nM
[5]
  binding result: no binding (tested: 0.46-1000 nM)
[6]
  Kd: 66.7 nM
[7]
  binding result: no binding (tested: 0.46-1000 nM)

B3: 01F09 anti-Robo 4 IgG (antibody, V domains shown)
VH: QIQLQESGPGLVKPSQSLSLTCSVTGYSISSGSLWTWIRQFPGNNLEWMGYISYAGGIDYNPSLTSRISITRDTSRNQFFLQLESVTTQDTATYYCATPGGYPFHFDYWGQGTMVTVSS
VL: QPVLTQSPSASASLGASVKLTCTLNSQFSTYNIGWYQQHRDKPPKYVMFVKGDGGHSKADGIPDRFSGSSSGADRYLTISNIQAEDEAIYFCGADYNNAGQYGCVFGSGTHFTVLG
notes: also called 01F09 IgG
[1]
  Kd: 2.63 nM
  koff: 0.00063 s⁻¹
  kon: 241000 M⁻¹ s⁻¹
[2]
  Kd: 256 nM
  koff: 0.0307 s⁻¹
  kon: 120000 M⁻¹ s⁻¹
[3]
  Kd: 474 nM
  koff: 0.0315 s⁻¹
  kon: 66600 M⁻¹ s⁻¹
[4]
  binding result: no binding (tested: 0.46-1000 nM)
[5]
  binding result: no binding (tested: 0.46-1000 nM)
[6]
  Kd: 55.5 nM
[7]
  binding result: no binding (tested: 0.46-1000 nM)

B4: 01F05 anti-Robo 4 IgG (antibody, V domains shown)
VH: QVQLKQSGAELVKPGASVKISCKTSVYTFTYGYMHWVEQKPGQGLEWIGRIDPDSGNSMYNQKFQGRATLTRDKSSSTVYMELRSLTSEDSAVYYCARSMRYSGYRDYALDLWGQGTQVTVSS
VL: QLVLTQSPSASASLGASVKLTCTLSSQHSSYGITWLQQHPDKAPKYVMYLKSDGSHTKGADIPDRFSGSSSGVHRYLSISNVQPEDEAIYFCVTYDSTHVFGSGTQLTVLG
notes: also called 01F05 IgG
[1]
  Kd: 15.3 nM
  koff: 0.00091 s⁻¹
  kon: 59600 M⁻¹ s⁻¹
[2]
  Kd: 10.1 nM
  koff: 0.00031 s⁻¹
  kon: 30800 M⁻¹ s⁻¹
[3]
  Kd: 144 nM
  koff: 0.00191 s⁻¹
  kon: 13300 M⁻¹ s⁻¹
[4]
  binding result: no binding (tested: 0.46-1000 nM)
[5]
  Kd: 30.6 nM
[6]
  binding result: no binding (tested: 0.46-1000 nM)
[7]
  binding result: no binding (tested: 0.46-1000 nM)
